Source: paper PMC10413684, “A bacterial tungsten-containing aldehyde oxidoreductase forms an enzymatic decorated protein nanowire” (Science Advances, 2023)
Values joined by “and” are separate entries in the source; they are usually repeats but may differ in a detail not shown here. Equal values may be shown once. Each block holds one molecule with its values, some of them ahead of it.

B1: AorC, FAD-containing NAD-binding subunit of the aldehyde oxidoreductase from Aromatoleum aromaticum (AORAa) (natural protein)
chain: MKHVILGNGPAGVIAAETLRRAAPTDDILLFGSEDAPPYSRMAIPYLLEGNIDESGTWLRKSPGHFDRLRIHEMRGRAVSLDSERRRILFDDGHFESWDRLLIATGSHPVRPPIPGIDLPEVQTCWTLEDARAIARFATPGARVLQLGAGFIGCIIMEALAARGVELTVVEMGDRMVPRMMTPTAGGMIRKWVEDQGVRVVTNAGVSRIDCRASNDAPLDVTLSTGEVVVADLVIVAAGVAPNIAFLEATPVHVAKGVLVDDRLQTSVPGIFAAGDVAEAPDLFTGAHLVAAIQPNAADQARVAALNMAGHEARLKGVLAINVLDTLGLISSSFGQWWGEERERGGAGVEHVDEAAYRYLSLQFKDDVLIGATSIGLTEHVGALRGLIHGRVRLGEWKERLLHSPLQFVDAYIARSQQPMALVR
notes: AorC of Aromatoleum aromaticum, Rossmann fold with an extended C-terminal domain of three α helices; A single copy per Aor(AB)nC complex; also called FAD-containing subunit; source: Aromatoleum evansii, heterologous expression of the AOR plasmid; Superdex 200 gel filtration for the wild-type complex, not for Δhelix-AOR

Tests used:
[1] = molecular target: T1, AORAa (Aor(AB)nC complex; FAD-containing subunit AorC) (Aromatoleum aromaticum, UniProt Q5P142); assay: cryo-EM structure, […] A; type: binding; details: bound in AorC; Arg41 and Glu294 (Gln294 in figure legend)
T1 construct: same complex as P1, site in AorC; N-terminal twin-Strep-tag on AorA; expressed in Aromatoleum evansii; modelled Aor(AB)2C; with Aldehyde oxidoreductase, polyferredoxin-like iron-sulfur subunit AorA; Aldehyde oxidoreductase, tungsten-containing catalytic subunit AorB (aldehyde:ferredoxin oxidoreductase)
T1 sequence (Q5P142 1-424): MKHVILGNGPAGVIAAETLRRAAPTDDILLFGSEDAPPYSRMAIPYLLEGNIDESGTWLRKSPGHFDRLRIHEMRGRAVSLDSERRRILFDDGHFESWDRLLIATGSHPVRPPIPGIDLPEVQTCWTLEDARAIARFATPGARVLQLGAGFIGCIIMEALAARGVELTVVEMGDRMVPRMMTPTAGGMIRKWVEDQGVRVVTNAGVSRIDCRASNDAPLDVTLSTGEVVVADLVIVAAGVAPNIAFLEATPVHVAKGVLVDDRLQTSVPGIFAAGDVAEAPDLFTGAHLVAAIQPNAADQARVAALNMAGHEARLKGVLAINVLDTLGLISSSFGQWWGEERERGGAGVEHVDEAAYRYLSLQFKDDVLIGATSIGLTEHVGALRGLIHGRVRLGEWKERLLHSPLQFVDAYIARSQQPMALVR
T1 sequence (Q5P144 1-158 partner): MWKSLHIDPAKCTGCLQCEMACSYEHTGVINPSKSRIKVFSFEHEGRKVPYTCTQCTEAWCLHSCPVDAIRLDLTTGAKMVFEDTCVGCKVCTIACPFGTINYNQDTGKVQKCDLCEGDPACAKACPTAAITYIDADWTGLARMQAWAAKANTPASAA
T1 sequence (Q5P143 1-616 partner): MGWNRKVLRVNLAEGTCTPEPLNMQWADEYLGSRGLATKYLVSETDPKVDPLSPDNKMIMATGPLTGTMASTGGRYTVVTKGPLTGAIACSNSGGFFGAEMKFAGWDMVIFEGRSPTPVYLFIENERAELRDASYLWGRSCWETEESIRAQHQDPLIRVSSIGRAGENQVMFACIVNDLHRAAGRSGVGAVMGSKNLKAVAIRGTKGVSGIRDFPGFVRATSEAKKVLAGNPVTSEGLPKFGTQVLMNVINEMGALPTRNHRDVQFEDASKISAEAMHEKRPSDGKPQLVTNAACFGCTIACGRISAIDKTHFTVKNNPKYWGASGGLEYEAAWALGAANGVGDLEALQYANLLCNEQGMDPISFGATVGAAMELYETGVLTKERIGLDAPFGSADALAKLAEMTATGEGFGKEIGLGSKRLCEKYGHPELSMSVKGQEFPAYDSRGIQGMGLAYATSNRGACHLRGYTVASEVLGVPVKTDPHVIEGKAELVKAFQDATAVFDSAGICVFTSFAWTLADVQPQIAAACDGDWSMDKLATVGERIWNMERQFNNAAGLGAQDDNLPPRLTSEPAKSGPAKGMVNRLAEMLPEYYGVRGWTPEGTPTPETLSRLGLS

[2] = molecular target: T2, AORAa (Aor(AB)nC complex; FAD-containing subunit AorC) (Aromatoleum aromaticum, UniProt Q5P142); assay: spectrophotometric specific activity; type: biochemical; details: hydrogen as electron donor; deletion-helix AOR
T2 construct: same complex as P1, site in AorC; N-terminal twin-Strep-tag on AorA; expressed in Aromatoleum evansii; modelled Aor(AB)2C; with Aldehyde oxidoreductase, polyferredoxin-like iron-sulfur subunit AorA; Aldehyde oxidoreductase, tungsten-containing catalytic subunit AorB (aldehyde:ferredoxin oxidoreductase)
T2 sequence (Q5P144 entry or part of it DEL138-156, one chain of several, further chain): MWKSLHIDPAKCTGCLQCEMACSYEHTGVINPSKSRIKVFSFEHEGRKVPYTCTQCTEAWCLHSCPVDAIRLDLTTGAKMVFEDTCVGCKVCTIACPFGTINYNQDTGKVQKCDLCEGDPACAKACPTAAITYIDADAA

[3] = molecular target: T3, AorA of the variant Δhelix-AOR, lacking the AorA residues from 138 to the C terminus (Aromatoleum aromaticum (strain DSM …, UniProt Q5P144)); assay: mass photometry of co-purified complex; seen only within the AorABC complex, with AorB present
T3 chain: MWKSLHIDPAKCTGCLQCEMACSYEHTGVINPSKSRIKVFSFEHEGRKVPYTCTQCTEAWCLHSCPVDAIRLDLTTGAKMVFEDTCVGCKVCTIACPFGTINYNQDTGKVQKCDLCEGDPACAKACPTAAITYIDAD

[4] = molecular target: T4, AorB, catalytic tungsten-cofactor-containing subunit of the aldehyde oxidoreductase from Aromatoleum … (Aromatoleum aromaticum, UniProt Q5P143 1-616); assay: cryo-EM structure; purified AORAa complex, 0.7 mg/ml, 50 mM Hepes pH 7.5, glycerol below 2%; native and BS3 cross-linked samples prepared; 3.22 Å map of an Aor(AB)3C complex, model of Aor(AB)2C; details: both partners purified
T4 construct: AorB of Aromatoleum aromaticum; benzoate seen in the active site; also called catalytic subunit; source: Aromatoleum evansii, heterologous expression of the AOR plasmid; Superdex 200 gel filtration for the wild-type complex, not for Δhelix-AOR
T4 sequence: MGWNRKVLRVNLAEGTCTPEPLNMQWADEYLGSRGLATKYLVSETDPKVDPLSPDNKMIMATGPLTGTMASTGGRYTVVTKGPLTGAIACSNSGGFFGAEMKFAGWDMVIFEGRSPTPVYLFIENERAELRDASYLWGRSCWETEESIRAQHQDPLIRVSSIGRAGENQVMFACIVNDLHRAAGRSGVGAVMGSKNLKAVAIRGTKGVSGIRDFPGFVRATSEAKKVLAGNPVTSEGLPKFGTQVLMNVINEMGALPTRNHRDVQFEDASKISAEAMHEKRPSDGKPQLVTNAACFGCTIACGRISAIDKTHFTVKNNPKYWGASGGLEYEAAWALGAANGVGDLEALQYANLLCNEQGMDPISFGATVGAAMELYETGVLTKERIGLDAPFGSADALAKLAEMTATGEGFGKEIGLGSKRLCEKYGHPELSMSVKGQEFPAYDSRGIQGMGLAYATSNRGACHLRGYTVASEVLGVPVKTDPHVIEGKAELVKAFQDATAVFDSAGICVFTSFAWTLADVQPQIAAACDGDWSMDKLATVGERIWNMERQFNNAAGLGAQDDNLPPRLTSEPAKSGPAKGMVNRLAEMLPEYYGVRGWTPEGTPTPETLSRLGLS

[5] = molecular target: T3, AorA of the variant Δhelix-AOR, lacking …; assay: mass photometry of co-purified complex
[6] = molecular target: the molecule itself; assay: mass photometry; OneMP mass photometer, 10 mM tris pH 8.0, 100 mM KCl, 0.1 mM EDTA, room temperature, sample diluted 10-fold just before measurement; 50 nM in Fig. 2D, E
[7] = molecular target: B1; assay: cryo-EM structure; purified AORAa complex, 0.7 mg/ml, 50 mM Hepes pH 7.5, glycerol below 2%; native and BS3 cross-linked samples prepared; 3.22 Å map of an Aor(AB)3C complex, model of Aor(AB)2C; details: both partners purified

Molecule: Cc1cc2nc3c(=O)[nH]c(=O)nc-3n(C[C@H](O)[C@H](O)[C@H](O)COP(=O)(O)OP(=O)(O)OC[C@H]3O[C@@H](n4cnc5c(N)ncnc54)[C@H](O)[C@@H]3O)c2cc1C [FAD]
- cryo-EM structure, 3.22 A [1]: The FAD cofactor was well resolved in the electron density

Molecule: NC(=O)c1ccc[n+]([C@@H]2O[C@H](COP(=O)(O)OP(=O)(O)OC[C@H]3O[C@@H](n4cnc5c(N)ncnc54)[C@H](O)[C@@H]3O)[C@@H](O)[C@H]2O)c1 [NAD^+]
- specific activity [2]: NAD^+ reduction with hydrogen as an electron donor

Molecule: B1
- binding result [3]: binds
- binding result [4]: binds

- binding result [5]: binds
B2: AorB, catalytic tungsten-cofactor-containing subunit of the aldehyde oxidoreductase from Aromatoleum aromaticum (AORAa) (protein)
chain: MGWNRKVLRVNLAEGTCTPEPLNMQWADEYLGSRGLATKYLVSETDPKVDPLSPDNKMIMATGPLTGTMASTGGRYTVVTKGPLTGAIACSNSGGFFGAEMKFAGWDMVIFEGRSPTPVYLFIENERAELRDASYLWGRSCWETEESIRAQHQDPLIRVSSIGRAGENQVMFACIVNDLHRAAGRSGVGAVMGSKNLKAVAIRGTKGVSGIRDFPGFVRATSEAKKVLAGNPVTSEGLPKFGTQVLMNVINEMGALPTRNHRDVQFEDASKISAEAMHEKRPSDGKPQLVTNAACFGCTIACGRISAIDKTHFTVKNNPKYWGASGGLEYEAAWALGAANGVGDLEALQYANLLCNEQGMDPISFGATVGAAMELYETGVLTKERIGLDAPFGSADALAKLAEMTATGEGFGKEIGLGSKRLCEKYGHPELSMSVKGQEFPAYDSRGIQGMGLAYATSNRGACHLRGYTVASEVLGVPVKTDPHVIEGKAELVKAFQDATAVFDSAGICVFTSFAWTLADVQPQIAAACDGDWSMDKLATVGERIWNMERQFNNAAGLGAQDDNLPPRLTSEPAKSGPAKGMVNRLAEMLPEYYGVRGWTPEGTPTPETLSRLGLS

- binding result [4]: binds
- binding result [7]: binds
B3: AorA, polyferredoxin-like small subunit of the aldehyde oxidoreductase from Aromatoleum aromaticum (AORAa) (natural protein)
chain: MWKSLHIDPAKCTGCLQCEMACSYEHTGVINPSKSRIKVFSFEHEGRKVPYTCTQCTEAWCLHSCPVDAIRLDLTTGAKMVFEDTCVGCKVCTIACPFGTINYNQDTGKVQKCDLCEGDPACAKACPTAAITYIDADWTGLARMQAWAAKANTPASAA
notes: Two to four copies per Aor(AB)nC complex; Carries four Fe4S4 clusters; also called small subunit AorA; electron transfer subunit; source: Aromatoleum evansii, heterologous expression of the AOR plasmid
- stoichiometry N [6]: 2 and 3 and 4
